Experiments:
[1] = tested on: mice; experiment: Acute toxicity tests in mice; type: in vivo
Description: The toxicity of plasminostreptin is extremely low and its LD50 values as determined by acute toxicity tests in mice are more than 5 g/kg orally, more than 5 g/kg intraperitoneally and 2 to 3 g/kg, intravenously.

[2] = biological target: T1, plasmin-UK (Homo sapiens, UniProt P00747); experiment: Plasmin-fibrin system (determination of clot lysis time); type: biochemical; settings: 50% inhibition of 0.08 casein units of plasmin-UK
T1 construct: purchased Midorijuji
Procedure: (§1) 2. Plasmin - UK (Midorijuji, urokinase-activated plasmin)
(2) Plasmin-fibrin system (determination of clot lysis time): Into a small test tube are poured 0.4 ml of a fibrinogen solution (0.25%, buffer (1)), 0.3 ml of buffer (1) and 0.1 ml of plasminostreptin solution of varying concentrations, followed by the addition of 0.1 ml of a plasmin-UK solution [0.8 casein units/ml, buffer (1)]. The mixture in blended well and immediately thereafter, 0.1 ml of a thrombin solution (50 J. P. units/ml, 0.145 M sodium chloride) is added. The resulting gel is allowed to stand at 37° C and the time necessary to lyse the clot is measured. The plasmin-inhibiting activity of plasminostreptin is determined by the procedure set forth in Biochimica Biophysica Acta. 214, 411 (1970). Thus, the amount of plasminostreptin which is required for a 50% inhibition of the activity of 0.08 casein units of plasmin-UK, which occurs in the reaction mixture, is determined from the concentration of plasminostreptin which will double the clot lysis time in the absence of plasminostreptin, and the above amount is indicated in units of ID50.
Target sequence in this assay (P00747 581-810 limits assumed): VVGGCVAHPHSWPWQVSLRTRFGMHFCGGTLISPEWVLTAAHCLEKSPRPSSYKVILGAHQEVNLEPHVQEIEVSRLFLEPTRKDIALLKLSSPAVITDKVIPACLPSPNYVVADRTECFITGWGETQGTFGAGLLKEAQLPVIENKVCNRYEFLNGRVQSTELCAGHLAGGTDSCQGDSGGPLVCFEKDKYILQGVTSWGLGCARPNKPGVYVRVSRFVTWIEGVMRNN
Target sequence in this assay (P00747 97-580 partner limits assumed): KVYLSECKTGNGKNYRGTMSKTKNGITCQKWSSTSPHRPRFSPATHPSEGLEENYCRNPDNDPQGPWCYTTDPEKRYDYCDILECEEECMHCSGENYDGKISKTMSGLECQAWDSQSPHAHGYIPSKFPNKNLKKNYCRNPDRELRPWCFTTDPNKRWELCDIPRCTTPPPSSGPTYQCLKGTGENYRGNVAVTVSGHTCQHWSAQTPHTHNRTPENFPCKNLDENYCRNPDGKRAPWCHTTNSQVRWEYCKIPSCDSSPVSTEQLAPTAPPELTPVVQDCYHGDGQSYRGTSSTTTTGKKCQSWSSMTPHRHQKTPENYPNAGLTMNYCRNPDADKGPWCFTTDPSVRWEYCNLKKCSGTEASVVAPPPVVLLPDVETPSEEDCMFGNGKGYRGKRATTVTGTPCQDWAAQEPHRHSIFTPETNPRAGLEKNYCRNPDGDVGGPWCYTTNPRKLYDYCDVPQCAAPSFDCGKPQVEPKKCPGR

[3] = biological target: T2, Nagarse (Bacillus amyloliquefaciens, UniProt P00782); experiment: Nagarse-casein system; type: biochemical; settings: 50% inhibition of 10 μg of Nagarse; casein substrate, pH 10.5
T2 construct: purchased Nagase Sangyo
T2 sequence (P00782 108-382): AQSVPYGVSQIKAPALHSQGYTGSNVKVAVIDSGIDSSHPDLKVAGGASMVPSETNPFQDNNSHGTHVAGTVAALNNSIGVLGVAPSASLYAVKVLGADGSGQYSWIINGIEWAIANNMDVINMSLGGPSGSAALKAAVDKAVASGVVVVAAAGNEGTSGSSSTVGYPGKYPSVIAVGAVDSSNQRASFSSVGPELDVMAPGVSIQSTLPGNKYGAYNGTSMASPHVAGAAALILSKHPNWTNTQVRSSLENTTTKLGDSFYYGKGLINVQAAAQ
Procedure: 5. Nagarse(crystalline protease, Nagase Sangyo)
(§2) Into a test tube are poured 1 ml of a casein solution [2%, buffer (3)], 0.5 ml of buffer (3), and 0.4 ml of a plasminostreptin solution of varying concentration and after the addition of 0.1 ml of either a Fusarium alkaline protease solution [40 μg/ml, buffer (3)] or Nagarse solution [100 μg/ml, buffer (3)], the mixture is blended well and allowed to stand under conditions similar to those described for the plasmin-casein system. Thereafter, also in the same manner as described above, the amount of plasminostreptin required for a 50% inhibition of the activity of 4 μg of Fusarium alkaline protease and 10 μg of Nagarse in the absence of plasminostreptin is determined, respectively, and indicated in units of ID50.

[4] = biological target: T1, plasmin-UK; experiment: Plasmin-casein system; type: biochemical; settings: 50% inhibition of 0.4 casein units of plasmin-UK; casein substrate
Procedure: as §1
Target sequence in this assay (P00747 581-810 limits assumed): as the sequence (P00747 581-810 limits assumed) above
Target sequence in this assay (P00747 97-580 partner limits assumed): as the sequence (P00747 97-580 partner limits assumed) above
3. plasmin-casein system: Into a test tube are poured 1 ml of casein solution [4%, buffer (2)], 0.5 ml of buffer (2) and 0.3 ml of a plasminostreptin solution of varying concentrations, followed by the addition of 0.2 ml of plasmin-UK solution [2 casein units/ml, buffer (2)]. The mixture is blended well and allowed to stand at 37° C for 20 minutes. The reaction is terminated by the addition of 2 ml of 1.7 M perchloric acid and the system is allowed to stand at room temperature for another 1 hour. The reaction mixture is filtered through a filter paper and the absorbance of the resulting filtrate at 280 mμ is measured.
The plasmin-inhibiting activity of plasminostreptin is determined and indicated as follows.
Thus, the amount of plasminostreptin is determined which is required to effect a 50% inhibition of the activity of 0.4 casein units of plasmin-UK in the absence of plasminostreptin and is shown in units of ID50.

[5] = biological target: T3, Plasmin-SK (Homo sapiens, UniProt P00747); experiment: Plasmin-fibrin system (fibrin plate method); type: biochemical
T3 construct: made in house
T3 sequence (P00747 581-810 limits assumed): as the sequence (P00747 581-810 limits assumed) above
T3 sequence (P00747 97-580 partner limits assumed): as the sequence (P00747 97-580 partner limits assumed) above
Procedure: 1. Plasmin-SK: The euglobulin fraction obtained from human blood plasma is dissolved in buffer (1) which is described below and then, activated with streptokinase (Lederle) [Annual Report of Takeda Research Laboratories, 28, 140 (1969)].
1. Plasmin-fibrin system (fibrin plate method): Ten ml of a fibrinogen solution (1%, buffer (1)) is placed in a petri dish (9 cm in diameter) and gelled by the addition of 0.2 ml of thrombin [50 J. P. units (Japanese Pharmacopeia units)/ml, 0.145 M sodium chloride]. The gel is allowed to stand at 30° C for 30 minutes to prepare a fibrin plate. Meanwhile, paper discs (8mm in diameter, water-absorbing capacity: 0.025 ml) are dipped in a plasminostreptin solution of varying concentrations and allowed to dry on a filter paper in the air.
Then, 0.015 ml of a plasmin-SK solution is dropped onto each of the discs, which is placed on the above fibrin plate. After the system is allowed to stand at 37° C for 5 to 10 hours, the formation of lyzed zone in evaluated. The plasmin-inhibiting activity of plasminostreptin is indicated as the concentration of plasminostreptin solution required for a complete inhibition of fibrinolysis.

[6] = biological target: T4, kallikrein (Beyer, Depot - Padutin) (Sus scrofa, UniProt P00752); experiment: Kallikrein esterase activity against benzoylarginine ethyl ester; type: biochemical; settings: result in words
T4 construct: purchased Beyer (so in the source); Bayer) Depot - Padutin
T4 sequence (P00752 8-246): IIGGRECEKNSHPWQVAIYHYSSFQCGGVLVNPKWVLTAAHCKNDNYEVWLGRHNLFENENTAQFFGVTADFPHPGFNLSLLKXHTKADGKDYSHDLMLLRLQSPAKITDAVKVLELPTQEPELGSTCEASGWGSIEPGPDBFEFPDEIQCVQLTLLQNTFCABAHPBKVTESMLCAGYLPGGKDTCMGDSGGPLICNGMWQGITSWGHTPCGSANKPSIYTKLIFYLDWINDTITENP

[7] = Stability (heat treatment, remaining activity); type: physicochemical; settings: 30 minutes' treatment at pH 4-9 and at 100° C
Procedure: More than 50 percent of the original activity remains intact even after a 30 minutes' treatment at pH 4-9 and at 100° C.

[8] = biological target: T1, plasmin-UK; experiment: Plasmin activity of rat blood plasma before and after intravenous administration; type: in vivo; settings: rats, 0.8 mg intravenous, 1 hour after administration; result in words
Procedure: From each of five rats (male, SD, 7 weeks old), blood samples are taken before the administration of plasminostreptin and also 1 hour after the intravenous administration of 0.8 mg plasminostreptin. The plasma is separated from each of the blood samples and the abovementioned plasmin-UK solution is added in each plasma sample to various concentrations.
Immediately thereafter, the activity of plasmin in each plasma sample is determined using casein as substrate. The plasmin activity of blood plasma samples from each rat before and after the administration of plasminostreptin are compared.
Target sequence in this assay (P00747 581-810 limits assumed): as the sequence (P00747 581-810 limits assumed) above
Target sequence in this assay (P00747 97-580 limits assumed): as the sequence (P00747 97-580 partner limits assumed) above

[9] = biological target: T5, Trypsin (Bos taurus, UniProt P00760); experiment: Trypsin-casein system; type: biochemical; settings: 50% inhibition of 10 μg of trypsin; casein substrate
T5 construct: purchased Sigma Type III
T5 sequence (P00760 24-246): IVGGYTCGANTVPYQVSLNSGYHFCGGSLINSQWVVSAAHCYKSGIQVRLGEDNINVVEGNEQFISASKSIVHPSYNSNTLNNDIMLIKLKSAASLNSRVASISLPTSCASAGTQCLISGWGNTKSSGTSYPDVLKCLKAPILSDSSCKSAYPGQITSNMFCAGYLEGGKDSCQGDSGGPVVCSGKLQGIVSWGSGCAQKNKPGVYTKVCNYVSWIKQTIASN
Procedure: 3. Trypsin (Sigma, crystalline, Type III)
Into a test tube are poured 1 ml of a casein solution [2%, buffer (2)], 0.5 ml of buffer (2) and 0.3 ml of a plasminostreptin solution of varying concentrations and after the addition of 0.2 ml of a trypsin solution [50 μg/ml, buffer(2)], the mixture is blended well and allowed to stand under conditions similar to those described for the plasmin-casein system. Thereafter, also in the same manner as described above, the amount of plasminostreptin required for a 50% inhibition of the activity of 10 μg of trypsin in the absence of plasminostreptin is determined and indicated in units of ID50.

[10] = Isoelectric point by isoelectric focussing method; type: physicochemical
Description: 6. Isoelectric point: about 6.3 as determined by the isoelectric focussing method Acta Chemica Scandinavica,20, 820 (1966)

[11] = Solubility; type: physicochemical
[12] = tested on: Fusarium alkaline protease; experiment: Fusarium alkaline protease-casein system; type: biochemical; settings: 50% inhibition of 4 μg of Fusarium alkaline protease; casein substrate, pH 10.5
Procedure: 4. fusarium crystalline alkaline protease (U.S.P. No. 3652399)
as §2

plasminostreptin
LD50 ([1]; intraperitoneally): more than 5 g/kg | LD50 ([1]; orally): more than 5 g/kg | ID50 [2]: < 10 µg | ID50 [3]: < 5 µg | ID50 [4]: < 10 µg | concentration for a complete inhibition of fibrinolysis ([5]; fibrin plate method, crystalline product of Example 1): 20 µg/mL | Concentration for complete inhibition ([5]; fibrin plate, complete inhibition of fibrinolysis, Table 3): < 30 µg/mL | Inhibition of the activity of kallikrein [6]: can hardly be detected | original activity remaining intact [7]: More than 50% | plasmin activity of blood plasma after administration [8]: significantly inhibited | ID50 [9]: < 5 µg | Isoelectric point [10]: about 6.3 | Solubility in aqueous solution ([11]; ammonium sulfate at 60% saturation): almost completely precipitated | Solubility ([11]; glacial acetic acid, alcohols, acetone, chloroform, ether, hexane and other organic solvents): only sparingly soluble | Solubility in aqueous solution ([11]; neighborhood of pH 6): solubility drops | Solubility ([11]; pyridine): slightly soluble | Solubility ([11]; water and aqueous ammonia): Soluble | ID50 [12]: < 6 µg

Reference: patent US4014860A, “Plasminostreptin (enzyme inhibitor) and method for producing it from streptomyces” (Takeda Chemical Industries, Ltd., priority 1972, dated 1977)
